What was measured:
[1] = target: sDR5 protein (extracellular domain of TRAIL receptor DR5, residues 1-130) (human); assay: SPR, BIAcore 2000, sDR5 immobilised
[2] = target: sDR5 protein (extracellular domain of TRAIL receptor DR5, residues 1-130) (human); assay: SPR, BIAcore 2000, sDR5 amine-coupled to chip, TRAIL 300-900 nM as analyte, 1:1 model, 25° C., apparent KD
[3] = target: sDR5 protein (extracellular domain of TRAIL receptor DR5, residues 1-130) (human); assay: cell-based or functional assay

fold change of apparent KD against wild-type TRAIL [1] [fold] | Kd [2] [nM] | Substance | cytotoxic activity on human SK-HEP-1 hepatoma cells (MTT viability, concentration giving 50% cell death) [3] [ng/mL] | cytotoxic activity on human SK-HEP-1 hepatoma cells (MTT viability, concentration giving 50% reduction of viability) [3] [ng/mL]
18 | 294 | TRAIL deletion mutant protein containing the deletion of residues 132-135 in the AA″ loop (ligand) | > 1000 | 
 | 15.9 | wild-type TRAIL protein (human, residues 114-281) (ligand) |  | 50

From patent US20040146968A1
